Data on 2 molecules can be found in PMC3183022 (Molecular Biology of the Cell, 2011).

Test [1] deals with mouse retrolinkin amino-terminus (amino acids 31–460) fused to GST (mouse, UniProt Q8BHE4 31-460). Kind of test: pull-down.
In test [2] the target is His-tagged retrolinkin (aa 31–460) (mouse, UniProt Q8BHE4 31-460). Kind of test: pull-down.
His-tagged retrolinkin (aa 31–460), sequence (Q8BHE4 31-460): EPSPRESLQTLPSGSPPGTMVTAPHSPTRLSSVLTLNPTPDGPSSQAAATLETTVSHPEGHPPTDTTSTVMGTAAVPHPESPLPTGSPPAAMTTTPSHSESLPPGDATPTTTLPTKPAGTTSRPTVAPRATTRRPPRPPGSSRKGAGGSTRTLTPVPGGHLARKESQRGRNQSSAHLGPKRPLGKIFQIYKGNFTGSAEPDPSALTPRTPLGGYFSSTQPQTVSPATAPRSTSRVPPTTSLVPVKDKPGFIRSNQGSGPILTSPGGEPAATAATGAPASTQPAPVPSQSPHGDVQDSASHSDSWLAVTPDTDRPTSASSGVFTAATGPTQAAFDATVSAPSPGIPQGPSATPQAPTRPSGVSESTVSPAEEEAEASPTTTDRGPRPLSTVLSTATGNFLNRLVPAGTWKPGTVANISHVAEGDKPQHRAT

mouse retrolinkin amino-terminus (amino acids 31–460) fused to GST, sequence (Q8BHE4 31-460): as above

B1: recombinant His-tagged endophilin A1 (natural protein, mouse, UniProt Q62420 1-352, looked up)
chain: MSVAGLKKQFHKATQKVSEKVGGAEGTKLDDDFKEMERKVDVTSRAVMEIMTKTIEYLQPNPASRAKLSMINTMSKIRGQEKGPGYPQAEALLAEAMLKFGRELGDDCNFGPALGEVGEAMRELSEVKDSLDMEVKQNFIDPLQNLHDKDLREIQHHLKKLEGRRLDFDYKKKRQGKIPDEELRQALEKFDESKEIAESSMFNLLEMDIEQVSQLSALVQAQLEYHKQAVQILQQVTVRLEERIRQASSQPRREYQPKPRMSLEFATGDSTQPNGGLSHTGTPKPPGVQMDQPCCRALYDFEPENEGELGFKEGDIITLTNQIDENWYEGMLHGQSGFFPINYVEILVALPH
As for B1, the binding result in test [1] is “binds”.

B2: GST-tagged endophilin A1 SH3 domain (aa 295–346) (domain or fragment)
chain: not shown
For the molecule B2, the binding result in test [2] was “binds”.
